Data: patent publication US20120148607A1

Biological target: c-Met on human cells (HPAF, A549, MKN-45) (human) (UniProt P08581)
Test: cell-based or functional assay

Chain of c-Met on human cells (HPAF, A549, MKN-45) (human) (P08581 25-1390): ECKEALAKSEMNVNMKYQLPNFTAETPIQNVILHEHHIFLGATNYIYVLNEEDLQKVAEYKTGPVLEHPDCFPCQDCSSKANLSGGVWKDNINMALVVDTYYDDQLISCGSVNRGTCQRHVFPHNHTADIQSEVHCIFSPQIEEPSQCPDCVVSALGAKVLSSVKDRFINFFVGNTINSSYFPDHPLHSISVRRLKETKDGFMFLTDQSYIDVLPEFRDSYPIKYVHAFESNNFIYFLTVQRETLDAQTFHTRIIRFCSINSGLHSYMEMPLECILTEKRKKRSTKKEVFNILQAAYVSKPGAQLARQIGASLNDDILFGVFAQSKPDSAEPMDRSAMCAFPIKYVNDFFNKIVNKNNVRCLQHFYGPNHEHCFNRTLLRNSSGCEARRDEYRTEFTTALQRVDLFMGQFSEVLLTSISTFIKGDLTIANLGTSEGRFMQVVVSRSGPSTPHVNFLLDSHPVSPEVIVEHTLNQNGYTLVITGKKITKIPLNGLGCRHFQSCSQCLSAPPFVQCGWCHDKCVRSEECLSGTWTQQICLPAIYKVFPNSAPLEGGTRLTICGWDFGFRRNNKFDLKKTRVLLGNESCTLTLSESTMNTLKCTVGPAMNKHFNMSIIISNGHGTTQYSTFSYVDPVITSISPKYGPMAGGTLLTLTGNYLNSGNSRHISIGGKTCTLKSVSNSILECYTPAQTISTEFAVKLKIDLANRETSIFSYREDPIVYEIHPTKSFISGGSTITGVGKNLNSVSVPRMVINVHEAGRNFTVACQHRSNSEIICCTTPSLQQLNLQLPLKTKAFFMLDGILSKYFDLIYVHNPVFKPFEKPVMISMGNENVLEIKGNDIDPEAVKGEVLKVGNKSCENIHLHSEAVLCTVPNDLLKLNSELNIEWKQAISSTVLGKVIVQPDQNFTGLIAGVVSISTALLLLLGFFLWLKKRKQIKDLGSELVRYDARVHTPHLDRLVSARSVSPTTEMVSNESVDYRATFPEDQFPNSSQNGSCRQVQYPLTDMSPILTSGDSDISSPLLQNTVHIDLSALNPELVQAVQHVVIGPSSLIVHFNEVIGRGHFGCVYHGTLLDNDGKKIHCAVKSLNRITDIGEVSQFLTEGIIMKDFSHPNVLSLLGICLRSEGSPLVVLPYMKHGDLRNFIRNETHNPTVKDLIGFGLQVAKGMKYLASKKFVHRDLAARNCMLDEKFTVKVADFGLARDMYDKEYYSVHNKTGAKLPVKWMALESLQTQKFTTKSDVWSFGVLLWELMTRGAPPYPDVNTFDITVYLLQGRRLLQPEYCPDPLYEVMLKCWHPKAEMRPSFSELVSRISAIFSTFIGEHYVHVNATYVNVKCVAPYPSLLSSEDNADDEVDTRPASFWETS

down-regulation of total c-Met on the surface of MKN-45 cells (flow cytometry): 50 to 60%
Substance: murine 5D5 antibody
